According to patent publication US20220267442A1:

Target: TGFβ1 (human) (UniProt P01137)
Assay: SPR

Chain of TGFβ1 (human) (P01137 279-390): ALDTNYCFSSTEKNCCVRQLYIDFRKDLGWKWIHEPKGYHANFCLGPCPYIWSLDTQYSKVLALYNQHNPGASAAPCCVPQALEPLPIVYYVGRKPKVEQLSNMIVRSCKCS

αTGF-β (1D11)
Kd: 26.6 nM
